{
  "source": "the DeepSol protein solubility set",
  "data": [
    {"assay": "soluble on expression in E. coli; label from the status in PepcDB or PDB records", "values": [
      {"sequence": "MATKEFYFAIIGHCDQPIFEMDFPVGEKKTKESEGTRHLNHYIGHAALDIVDEHALTTSQMYLKMVDKFNEWYVSAFVTASRIRFIMLHTHRADEGIKQFFQEMYETYIKHAMNPFYEIDDVIESPAFEQKATLYGRKYLS", "soluble on expression in E. coli": "not soluble"},
      {"sequence": "MATNESIMTLPLASKFKAEARAMADRGLSTYEAVYQLNKLEEQDKPRADAIMALDESGDYQPLLRAMANVPCIDVGTAKSILSMTIEQERPKVAPELTAAFENFMDMHSPQAVSAGMAYDGRNQGDDGDIDRILKTI", "soluble on expression in E. coli": "soluble"},
      {"sequence": "MATPVPLVFNAPKRGMPPTHFADLNDEARIEALKELGLPKFRLNQIARHYYGRLEADPLTMTDLPEGARQEVKDALFPTLMSPLRVVETDDDTTQKTLWKLHDGTLLESVLMRYSDRSTLCISSQAGCGMACPFCATGQGGLDRNLSIGEIVDQVRNAAATMQSEGGRLSNIVFMGMGEPLANYKRVVSAVRQITQPSPAGFGISQRSVTVSTVGLAPAIRKLADEEMSVTLAVSLHTPDDELRDTLVPVNNRWPVAEVLDAARYYADKSGRRVSIEYALIRDVNDQDWRADMLGEKLHKALGSRVHVNLIPLNPTPGSKWDAAPKARQDEFVRRVIAKGVPCTVRDTKGQEIAAACGQLAAEESA", "soluble on expression in E. coli": "not soluble"},
      {"sequence": "MATSFYTGGGEDGDGFNPRVHARIAEREGFQLASGSEDPRTLFVANLDPAITDEFLATLFNQIGAVMKAKIIFEGLNDPYAFVEFSDHNQATLALQSHNGRELLEKEMHVTWAFEPREPGENRSKPETSRHFHVFVGDLCSEIDSTKLREAFVKFGEVSEAKIIRDNNTNKGKGYGFVSYPRREDAERAIDEMNGAWLGRRTIRTNWATRKPDEDGERGGDRGDRRGGGGGGRDRYHNQSEKTYDEIFNQAAADNTSVYVGNIANLGEDEIRRAFDRFGPINEVRTFKIQGYAFVKFETKESAARAIVQMNNADIGGQIVRCSWGKSGDSGKPSERGSGGGGGSGNYGYGYGNSGGGGGSGGPGNSQFSNFNQRPPPSGNGGSGGGSGGQNNQYWQYYSQYYNNPHLMQQWNNYWQKDGPPPPPAAAASSTGGN", "soluble on expression in E. coli": "not soluble"},
      {"sequence": "MATYRKSRAFAPEGFFECEGRGLEWLGAAHAQGGPRVVQVYGWGKDYLDIERVGSASPTPQAARAFGAALARMHDAGAKYFGSAPDGYNGTCYFGPLQDPVKMDTGEWTDPISYFADGRLRPMVNLGVKRGELDKRDVELTERVIEALPDLMGRAAADKPARIHGDLWSGNVMWTADSGQSEAVLIDPAAHGGHREEDLAMLHLFGMSYLSEITEGYQSVHPLKAGWQERITLWQLYPIAGHCVFFGGGYVNEYRSMCRSLLKLEHHHHHH", "soluble on expression in E. coli": "not soluble"},
      {"sequence": "MAVAGFSPIKLIWKNSRHDLVLAGQAGLSYKNNNYLYMDVDNKHAMARTYANGKFSLGARMAYEYRISNTLGAGATATYEFGGEVFAALATFNVHF", "soluble on expression in E. coli": "not soluble"},
      {"sequence": "MAVELNQLRDQIDEVDKQMVELLARRLALVEQVGQVKSRYGLPIYAPDREAAMLASRRAEAESKGVPPQLIEDILRRTMRESYASEKDSGFKCLNPELRSVVIVGGNGQLGRLFGRMFKLSGYQVKVLGSQDWDKADELLSDAGLVVVTVPIHLTLGVIEKLRQLPDDCILCDLTSIKAKPLAAMLQVHKGPVVGLHPMFGPDVPSLAKQVIVYCDGRGNEHYQWLLQQFAIWGASLCQIDADEHDRGMTLIQALRHFTSFAYGLHLTKENPNLAQLLKLSSPIYRLELAMVGRLFGQDPHLYGDIILSSPENIEMIQRFHRCLSDAVELVSAGDKASFVAQFERVSQWFGDYSQQFMHESQNLLKQANDAIHRG", "soluble on expression in E. coli": "not soluble"},
      {"sequence": "MAVRFIREDGDEILRKVSKKVDVIDERIKTLLDDMAETMYAANGVGLAAPQVGVLKRVVVIDVGDGLMELINPEIVEQEGEQIDIEGCLSIPGVAGEVKRPARVVVEALNREGEKITVEGKELLAVALCHEIDHLDGILFTDKVIRFIDEDEMERRRENKRRNKIRQNKG", "soluble on expression in E. coli": "not soluble"},
      {"sequence": "MAVVFKKTEGLQDTQTHYCPGCTHGIIHRLVGEVLEELGVLGDAVGVVPVGCSVLGYKYFNCDTQEAAHGRAPAAATGIKRVHPENTVFTYQGDGDLASIGTAEIVHAAARGEKITTIFVNNTTYGMTGGQMAPTTLVGQRATTAQSGRNAETQGYPIRVSEMLATLTGAVFVERVAVDTPAHVRQAKKAIKKAFQVQQAGLGFGIVEVLSTCPTNWGLAPNDALQWLRDNMIPYYPLGNFKNVEVEEVK", "soluble on expression in E. coli": "not soluble"},
      {"sequence": "MAVYLDFENHIKEIQNEIELALIRGDEDAKEILEKRLDKEVKSIYSNLTDFQKLQLARHPDRPYAMDYIDLILKDKYEVFGDRHYNDDKAIVCFVGKIDNVPVVVIGEEKGRGTKNKLLRNFGMPNPCGYRKALKMAKFAEKFNLPILMLVDTAGAYPGIGAEERGQSEAIAKNLQEFASLKVPTISVIIGEGGSGGALAIAVADKLAMMEYSIFSVISPEGCAAILWDDPSKTEVAIKAMKITPRDLKEAGLIDDIILEPSKGAHRDKFSAANTIKEYFLDALRTIQQDPHFLDNRYQKLMSLGSFVESMN", "soluble on expression in E. coli": "soluble"},
      {"sequence": "MAYCNPGLESRPNKRNALRRHVVTGIGMKIVIAPDSYKESLSASEVAQAIEKGFREIFPDAQYVSVPVADGGEGTVEAMIAATQGAERHAWVTGPLGEKVNASWGISGDGKTAFIEMAAASGLELVPAEKRDPLVTTSRGTGELILQALESGATNIIIGIGGSATNDGGAGMVQALGAKLCDANGNEIGFGGGSLNTLNDIDISGLDPRLKDCVIRVACDVTNPLVGDNGASRIFGPQKGASEAMIVELDNNLSHYAEVIKKALHVDVKDVPGAGAAGGMGAALMAFLGAELKSGIEIVTTALNLEEHIHDCTLVITGEGRIDSQSIHGKVPIGVANVAKKYHKPVIGIAGSLTDDVGVVHQHGIDAVFSVLTSIGTLDEAFRGAYDNICRASRNIAATLAIGMRNAG", "soluble on expression in E. coli": "soluble"},
      {"sequence": "MAYDGLFTKKMVESLQFLTTGRVHKINQPDNDTILMVVRQNRQNHQLLLSIHPNFSRLQLTTKKYDNPFNPPMFARVFRKHLEGGIIESIKQIGNDRRIEIDIKSKDEIGDTIYRTVILEIMGKHSNLILVDENRKIIEGFKHLTPNTNHYRTVMPGFNYEAPPTQHKINPYDITGAEVLKYIDFNAGNIAKQLLNQFEGFSPLITNEIVSRRQFMTSSTLPEAFDEVMAETKLPPTPIFHKNHETGKEDFYFIKLNQFNDDTVTYDSLNDLLDRFYDARGERERVKQ", "soluble on expression in E. coli": "soluble"},
      {"sequence": "MAYFALGLATATKNRDGKIIEAFFPTPILAPSDALVAALAPIAGYQEGNQALDITAAQSAQLAAVFAAHQQAASAAFADKAANAKQPLVLVILASDDKPQSVAEGYLKLQLISHRLVKPHGTVLDGIFGLLHNIAWTNEGPIDLPELAERQIEARLAGRVLTVDCVDKFPKMVDYVVPAGIRIADTSRVRLGAHVGEGTTVMHEGFINFNAGTTGVSMVEGRISAGVVVGNGSDIGGGASIMGTLSGGGKVVVSIGENSLLGANAGLGFPLGDRCTVESGLYVTAGTKVRTLDKDGNQVDIVKARDLAGVSDLLFRRNSLTGQIECLANKSAVELNSELHKNN", "soluble on expression in E. coli": "not soluble"},
      {"sequence": "MAYKHILIAVDLSPESKVLVEKAVSMARPYNAKISLIHVDVNYSDLYTGLIDVNLGDMQKRISEETHHALTELSTNAGYPITETLSGSGDLGQVLVDAIKKYDMDLVVCGHHQDFWSKLMSSARQLINTVHVDMLIVPLRDEEE", "soluble on expression in E. coli": "not soluble"},
      {"sequence": "MAYKVYLKDLADVDDGSRCESSSILTQNQPTTIASSGFVMSNPNVKSPSLPSSATNWNSEYSVTEPTMSPADQILKDSVARKKRSMVDLTELNQLYGKGYKPPAPSARTPPTIYENLAINAPSSPSATDASSVPLTFIEKHHEFKKLVPSGTDGRFELFLKVADCFD", "soluble on expression in E. coli": "not soluble"},
      {"sequence": "MAYWLLKSEPQVYGIEDLEREGRAIWDGVRNYQARNYLMQMKEGDLCFFYHSGTTPPGIAGRCRVVRTLLPDPTQFDPESPYYDPKATPEKPRWYTVEVAFVEKWPLVPLAELKALFPPDHPLVKRGNRLSVMPVPPEVAEALIVRRGSR", "soluble on expression in E. coli": "soluble"},
      {"sequence": "MCFFLLCFLDSFRNRDTTQSDTDVIYPRDDPRASRSHQNFGFMDPPPRYEQIFKRGGGTPSVITTREAPSVTRSTGDGSLPPSYEQAALNARRESRPQLPQGTLREVPLTAIDMEHPAMSTPSSTVLDMESEITNITNHAQACVHRYDASHANEVTRTAVAVTTESPAPAQSTSNALPELEAPEGGPPGYDTISLHNETVSTR", "soluble on expression in E. coli": "not soluble"}
    ]}
  ]
}
